In test [1] the target is T1, glycosylated human PAI-1 (active form) (human, UniProt P05121 24-402, glycosylated). In words: cell-based or functional assay.
Test [2] deals with T1, glycosylated human PAI-1 (active form). Nature of the test: cell-based or functional assay. This is another data set of the same source.
Test [3] deals with T2, human PAI-1 (human, UniProt P05121 24-402). In words: cell-based or functional assay.
Test [4] addresses T1, glycosylated human PAI-1 (active form). In words: cell-based or functional assay. The source holds these as a separate data set.
The target is the same in test [5]. In words: cell-based or functional assay. The source holds these as a separate data set.
For test [6] the target is unchanged. In words: Biacore (summary table). The protocol: (§1) In kinetics measurement, the antibodies were evaluated in reverse at 25° C. In the reverse assay, PAI-1 antibodies were captured to the anti-mouse IgG Fc antibody surface prepared on CM5 chip followed by injecting the serial 2× dilutions of PAI-1 proteins (human or cyno) starting at 40 nM. A high flow rate was chosen at 50 ul/min to avoid mass transportation limitation. Two thousand seconds was allowed for dissociation time to accommodate for the slow off rate of the selected antibodies. The chip was regenerated by glycine-HCl, pH 1.7 buffer after each round of antibody-PAI-1 binding. Kinetics data analysis was performed using Biacore BIAevaluation software. The sensorgrams were double-referenced by subtracting the reference flow cell values and the blank buffer values. The sensorgrams were fitted by using the simulated kinetics 1:1 (Langmuir) model with local Rmax.
(In general: SPR reads the build-up and loss of mass on a sensor chip optically.)

The target of test [7] is T2, human PAI-1. In words: cell-based or functional assay. This is another data set of the same source.
Test [8] concerns the target T3, cynomolgus PAI-1 (cynomolgus monkey (Macaca fascicularis), UniProt P05121 24-402 (human entry)). In words: cell-based or functional assay.
For test [9], the target named is T2, human PAI-1. In words: Biacore, hybridoma supernatant.
The target in test [10] is T4, cyno PAI-1 captured on immobilized human vitronectin (cynomolgus monkey; human, UniProt P04004 20-478, limits assumed).
T4 construct: non-covalent complex formed on the chip; also called cPAI-1/Vn
In words: Biacore, cPAI-1 on vitronectin chip, 1:1 model.

Test [11] concerns the target T5, human PAI-1 captured on immobilized human vitronectin (human, UniProt P04004 20-478).
T5 construct: non-covalent complex formed on the chip or plate; also called PAI-1/Vn complex; Vn captured hPAI-1
In words: Biacore, hPAI-1 on vitronectin chip, 1:1 model.

The target of test [12] is T2, human PAI-1. In words: Biacore reverse assay, mAb captured by anti-mouse IgG Fc, 25 C. The protocol: as §1
Test [13] concerns the target T3, cynomolgus PAI-1. The description is as above. The protocol: as §1
Test [14] has as its target T5, human PAI-1 captured on immobilized …. Nature of the test: Biacore forward assay, hPAI-1 captured on immobilized vitronectin. The protocol:
Binding kinetics of representative antibodies were further analyzed and compared in Biacore forward assay with vitronectin and PAI-1 complex. In the forward assay, human vitronectin protein was immobilized onto the CM5 chip in flow cells Fc1-Fc4 by amine coupling. Human PAI-1 was then captured to the vitronectin surface in flow cells Fc2-Fe4 as ligand. Fc1 was reserved as reference cell. The antibodies were diluted 2× starting from 40 nM and injected to Fc1-4. Kinetics data analysis was performed using Biacore BIAevaluation software. The sensorgrams were first double-referenced by subtracting the reference cell values and the blank buffer values, and then fitted by 1:1 (Langmuir) model was used with global Rmax.

For test [15], the target named is T4, cyno PAI-1 captured on immobilized …. In words: Biacore, cPAI-1 on vitronectin chip, two state reaction model.
The target in test [16] is T5, human PAI-1 captured on immobilized …. In words: Biacore, hPAI-1 on vitronectin chip, two state reaction model.
The target in test [17] is T4, cyno PAI-1 captured on immobilized …. In words: Biacore, cPAI-1 on vitronectin chip, two state reaction model (ka1).
Test [18] has the same target. Nature of the test: Biacore, cPAI-1 on vitronectin chip, two state reaction model (kd1).
The target of test [19] is T5, human PAI-1 captured on immobilized …. In words: Biacore, hPAI-1 on vitronectin chip, two state reaction model (kd1).
For test [20] the target is unchanged. In words: Biacore, hPAI-1 on vitronectin chip, two state reaction model (ka1); two state reaction model, ka1 is the first-step rate.
Test [21] has as its target T2, human PAI-1. In words: cell-based or functional assay. This is another data set of the same source.
Test [22] deals with T2, human PAI-1. Nature of the test: Biacore, hybridoma supernatant; hybridoma supernatant, off-rate screen (class, not a fitted rate). The protocol: In the Biacore reverse screening assay, ELISA positive hybridoma supernatants were selected and filtered through 0.2 μm filters before being injected onto Biacore chip surface. Each hybridoma supernatant was injected onto one flow cell of flow cells Fc2-Fc4 and the IgG in the hybridoma supernatant would be captured to the chip surface by anti-mouse IgG Fc mAb, while Fc1 was left alone as reference cells. Human PAI-1 protein in PBS was then injected to Fc1 to Fc4. PBS buffer was also injected over the chip surface as a blank. After subtracting signals of Fc1 and blank buffer runs, the binding affinity (KD)/disassociation rate (kd) of the antibody from the supernatants to PAI-1 protein was analyzed and ranked using Scrubber 2 software.

In test [23] the target is T2, human PAI-1. In words: Biacore reverse assay, mAb captured by anti-mouse IgG Fc, 25 C; reverse assay: B28 captured by anti-mouse IgG Fc, PAI-1 injected, 25 C. The protocol: as §1

Numbering of substitutions follows the chain as printed. Read-outs that look alike come from different tables or passages of the source.

The term Kd denotes a measure of binding affinity in units of concentration. A word on the koff: it is the rate constant with which the complex falls apart. What is called kon is a measure of how fast the partners come together.

T5 sequence (chain, as listed by the source limits assumed, chain 1 of 2): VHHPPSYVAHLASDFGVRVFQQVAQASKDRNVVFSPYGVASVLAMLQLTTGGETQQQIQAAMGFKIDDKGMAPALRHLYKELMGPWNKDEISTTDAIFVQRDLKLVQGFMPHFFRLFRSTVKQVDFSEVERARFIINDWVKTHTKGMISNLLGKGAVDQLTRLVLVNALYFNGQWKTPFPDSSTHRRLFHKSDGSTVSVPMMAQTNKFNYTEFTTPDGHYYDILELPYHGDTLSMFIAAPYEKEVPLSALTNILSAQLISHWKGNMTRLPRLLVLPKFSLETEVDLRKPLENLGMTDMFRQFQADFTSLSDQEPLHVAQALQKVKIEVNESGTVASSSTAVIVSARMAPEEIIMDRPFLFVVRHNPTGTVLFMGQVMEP
T5 sequence (P04004 20-478 limits assumed, chain 2 of 2): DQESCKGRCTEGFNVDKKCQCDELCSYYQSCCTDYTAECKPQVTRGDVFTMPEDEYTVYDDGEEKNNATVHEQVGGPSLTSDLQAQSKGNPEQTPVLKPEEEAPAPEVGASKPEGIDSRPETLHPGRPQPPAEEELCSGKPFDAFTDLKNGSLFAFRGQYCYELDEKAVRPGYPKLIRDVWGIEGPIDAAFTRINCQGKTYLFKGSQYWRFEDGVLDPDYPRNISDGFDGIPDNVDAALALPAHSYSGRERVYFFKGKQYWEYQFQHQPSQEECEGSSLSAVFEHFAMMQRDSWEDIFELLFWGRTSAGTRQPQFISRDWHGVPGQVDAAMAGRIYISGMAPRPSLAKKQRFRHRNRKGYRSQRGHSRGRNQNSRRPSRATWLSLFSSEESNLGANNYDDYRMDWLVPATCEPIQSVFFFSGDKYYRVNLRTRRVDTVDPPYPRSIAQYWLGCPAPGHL
T3 sequence (P05121 other isoform, or with tags, fused parts or gaps limits assumed): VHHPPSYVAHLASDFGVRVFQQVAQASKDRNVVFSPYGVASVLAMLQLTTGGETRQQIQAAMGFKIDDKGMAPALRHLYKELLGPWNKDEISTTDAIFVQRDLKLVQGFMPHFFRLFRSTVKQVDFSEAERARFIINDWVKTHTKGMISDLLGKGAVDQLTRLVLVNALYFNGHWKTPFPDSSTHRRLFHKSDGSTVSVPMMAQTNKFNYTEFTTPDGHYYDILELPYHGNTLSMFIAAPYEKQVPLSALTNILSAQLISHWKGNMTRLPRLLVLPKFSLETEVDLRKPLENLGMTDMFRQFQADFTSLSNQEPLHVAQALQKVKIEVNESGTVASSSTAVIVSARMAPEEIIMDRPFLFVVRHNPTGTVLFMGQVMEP
T4 sequence (chain, as listed by the source limits assumed, chain 1 of 2): as the sequence (P05121 other isoform, or with tags, fused parts or gaps limits assumed) above
T4 sequence (P04004 20-478 limits assumed, chain 2 of 2): as the sequence (P04004 20-478 limits assumed, chain 2 of 2) above

B1: A44 (antibody, mouse IgG1, V domains shown)
VH: EMQLQESGPSLVKPSQTLSLTCSVTGDSMTNGYWNWIRKFPGNKLEYMGYITYSGSTYYNPSLKGRISITRNTSKNQYYLQLSSVTTEDTATYYCARWHYGSPYYFDYWGQGTTLTVSS
VL: DIKMTQSPSSMYASLGERVTITCKASQDINSYLSWLQQKPGKSPKTLIYRANRSVDGVPSRFSGSGSGQDYSLTISSLEYEDMGIYYCLQYDEFPPTFGGGTKLEIKR
notes: mouse IgG1/kappa; also called mA44; A44 parental
As for B1, the “plasmin generation, hepatic stellate cells, IC50abs” value in [1] came out at 3320 pM. Also, the “plasmin generation, hepatic stellate cells, Imax” value in test [1] was found to be 97%. Besides, the “Plasmin Generation” value in test [2] came out at 3.32 nM. Besides, in test [3], the “Chromogenic Assay IC50” value was found to be 440 pM. The results for the “Plasminogen Activation IC50” value in test [4] and in test [5] were 3170 pM and 3130 pM, respectively. Further, the “Plasminogen Activation Y50%” value amounted to 46% in test [4] and 79.8% in test [5]. For the same molecule, the dissociation constant Kd was 0.042 pM in test [6]; 69.6 pM in test [10]; 40.4 pM in test [11]; 3.76 pM in test [12]; at most 0.1 pM in [13]; at most 1 pM in [14]. Besides, the “EC50, fall of % tPA inhibition by PAI-1 (chromogenic neutralisation assay)” value in [7] amounted to 4030 pM. In test [8], the “EC50, % PAI-1 neutralization, 2.8 nM cyno PAI-1 (chromogenic assay with human tPA); plateau about 100 %” value was found to be 226 pM. For the same molecule, the off-rate constant (koff) is at most 0.0001 s⁻¹ in [9]; 0.000275 s⁻¹ in test [10]; 0.000229 s⁻¹ in [11]; 1.49e-05 s⁻¹ in test [12]; at most 1e-06 s⁻¹ in test [13]; at most 1e-06 s⁻¹ in [14]. For the same molecule, the on-rate (kon) in [10] was 3.98e+06 M⁻¹ s⁻¹; in [11], 5.68e+06 M⁻¹ s⁻¹.

B2: A44-hv2 (antibody, V domains shown)
VH: B1 VH with S10G, Q16E, N43K, K44G, Q81K, E88A
VL: DIKMTQSPSSVSVSPGQTVTITCKASQDINSYLSWLQQKPGQSPKTLIYRANRSVDGVPSRFSGSGSGQDYSLTISSLQAMDEGIYYCLQYDEFPPTFGGGTKLTIK
notes: humanized A44, HEK293; constant regions as for A44-hv1; also called LC1b x HC1b; variant 2
On to B2, for which the “Chromogenic Assay IC50” value in test [3] turned out to be 600 pM. Moreover, the Kd in [15] came out at 137 pM; in test [16], 135 pM. For the same molecule, the kon is 2.3e+06 M⁻¹ s⁻¹ in [17] and 2.99e+06 M⁻¹ s⁻¹ in test [20]. Besides, the results for the off-rate constant (koff) in test [18] and in [19] were 0.000314 s⁻¹ and 0.000403 s⁻¹, respectively.

B3: B28 (antibody, mouse IgG2b, V domains shown)
VH: QVQLQQSGAELMKPGASVKISCKATGYTFSISWIEWIKQRPGGLEWIGKILPGSGGANYNEKFKGKATVTADTSSNTVYMQLSSLTSEDSAVYYCARLSTGTRGAFDYWGQGTTLTVSS
VL: DIQLTQSPASLSASVGATVTITCRASENVYSYLAWYQQKQGKSPQLLVYNAKTLAEGVPSRFSGSGSGTQFSLKINYLQPEDFGSYYCQHHYGTPPTFGGGTKVEIKR
notes: mouse IgG2b/kappa; also called mB28; B28 (IgG2b/k)
In the case of B3, in test [1], the “plasmin generation, hepatic stellate cells, IC50abs” value is 7280 pM and the “plasmin generation, hepatic stellate cells, Imax” value came out at 90%. In addition, in [2], the “Chromogenic Assays” value worked out at 1.8 nM and the “Plasmin Generation” value was 7.28 nM. The molecule also yielded a Kd in [6] of 650 pM. The “EC50, % neutralization of hPAI-1 (chromogenic assay)” value in test [21] turned out to be 2300 pM. In test [22], this molecule yielded a koff of at most 0.0001 s⁻¹. In [23], this molecule had a Kd of 650 pM and a dissociation rate constant (koff) of 0.000461 s⁻¹.

The values above are taken from patent US20160200831A1 (Sanofi, published 2016).
